Results reported in patent US20250327097A1, “ORGANISMS PRODUCING LESS CROTONIC ACID” (Global Bioenergies, priority 2021, published 2025).
Residue numbers refer to the chain shown, from its start. Names may count otherwise.

B1: H141C-I283T-N285P-N287T-Q290E-S322T-N388M-S389H-K394R-C430A-i430aG-L432F-L434W-S436N-dG462 (protein)
chain: MFLKSLREQINLLKRQGDLRIINRPVDSYLEAAAIIRRSTETKAPVPLMTNIKGYPGCSIVGGLAALSSNPEYPLSRVAMSLGLSTTASAQSIVQYLIDGLKKTPYLPVEIDSNSAPCKQNILRGEDASLAHFPIPQVHQCDGNRYVNTWGVFIVESPDGQWCNWSIQRVQYLNDRQMIALVFPSQHISDIWEEWVKIGKPMPYALVQGCEPIVPYIAGLPLLERNVNEAEYIGALYGKGIEVVKCETHDLRVPASSEVVIEGYFAITREGVEGPFGEFAGYTPPETSLEPILSITAISWQDDPIWPVVAEGKPVDEYHTCTGIGDAAAIQNVLLTANLPVSFVWVPLYSACHLMIVSINRHWRQTHPDLTSEQLTKKVGDVIHQTRMHIKLPRIVVLDDDVDPADTESLLWALATRIHPERKRYFYESAIFPWLNCYSEEERHNRKGKRVIIDALLPENHGAISSFDYAYPDDIKQRVLMHWETDFSHD
B2: I283T-N285P-N287T-Q290E-S322T-N388M-S389H-K394R-C430A-i430aG-L432F-L434W-S436N-I453L-dG462 (protein)
chain: B1 chain with C141H, I453L
B3: E224P-I283T-N285P-N287T-Q290E-S322T-N388M-K394R-C430A-i430aG-L432F-L434W-S436N-dG462 (protein)
chain: B1 chain with C141H, E224P, H389S
B4: I283T-N285P-N287T-Q290E-S322T-I330V-N388M-S389H-K394R-C430A-i430aG-L432F-L434W-S436N-V451S-dG462 (protein)
chain: B1 chain with C141H, I330V, V451S
B5: I283T-N285P-N287T-Q290E-S322T-I330V-N388M-S389H-K394R-C430A-i430aG-L432F-L434W-S436N-dG462 (protein)
chain: B1 chain with C141H, I330V
B6: L222V-E224P-I283T-N285P-N287T-Q290E-S322T-N388M-K394R-C430A-i430aG-L432F-L434W-S436N-dG462 (protein)
chain: B1 chain with C141H, L222V, E224P, H389S
B7: E224P-I283T-N285P-N287T-Q290E-S322T-N388M-S389H-K394R-C430A-i430aG-L432F-L434W-S436N-dG462 (protein)
chain: B1 chain with C141H, E224P
B8: E224A-I283T-N285P-N287T-Q290E-S322T-N388M-S389H-K394R-C430A-i430aG-L432F-L434W-S436N-dG462 (protein)
chain: B1 chain with C141H, E224A
B9: H141C-I283T-N285P-N287T-Q290E-S322T-I330V-N388M-S389H-K394R-C430A-i430aG-L432F-L434W-S436N-dG462 (protein)
chain: B1 chain with I330V
B10: I283T-P284D-i284aP-N287P-S322T-Q365I-N388M-E421V-C430N-L432F-L434W-S436N-H461T-dG462-A463T (protein)
chain: MFLKSLREQINLLKRQGDLRIINRPVDSYLEAAAIIRRSTETKAPVPLMTNIKGYPGCSIVGGLAALSSNPEYPLSRVAMSLGLSTTASAQSIVQYLIDGLKKTPYLPVEIDSNSAPCKQNILRGEDASLAHFPIPQVHQHDGNRYVNTWGVFIVESPDGQWCNWSIQRVQYLNDRQMIALVFPSQHISDIWEEWVKIGKPMPYALVQGCEPIVPYIAGLPLLERNVNEAEYIGALYGKGIEVVKCETHDLRVPASSEVVIEGYFAITREGVEGPFGEFAGYTDNEPSLQPILSITAISWQDDPIWPVVAEGKPVDEYHTCTGIGDAAAIQNVLLTANLPVSFVWVPLYSACHLMIVSINRHWRITHPDLTSEQLTKKVGDVIHQTRMSIKLPKIVVLDDDVDPADTESLLWALATRIHPVRKRYFYESNIFPWLNCYSEEERHNRKGKRVIIDALLPENTGTISSFDYAYPDDIKQRVLMHWETDFSHD
B11: I283T-P284D-i284aP-N287P-S322T-Q385T-N388M-E421V-C430N-L432F-L434W-S436N-H461T-dG462-A463T (protein)
chain: B10 chain with I365Q, Q385T
B12: I283T-P284D-i284aP-N287P-S322T-N388M-E421V-C430N-I431M-L432F-L434W-S436N-H461T-dG462-A463T (protein)
chain: B10 chain with I365Q, I431M
B13: I283T-P284D-i284aP-N287P-S322T-Q385L-N388M-E421V-C430N-L432F-L434W-S436N-H461T-dG462-A463T (protein)
chain: B10 chain with I365Q, Q385L
B14: I283T-P284D-i284aP-N287P-S322T-N388M-E421V-C430N-L432F-L434W-S436N-G448E-H461T-dG462-A463T (protein)
chain: B10 chain with I365Q, G448E
B15: I283T-P284D-i284aP-N287P-S322T-Q385G-N388M-E421V-C430N-L432F-L434W-S436N-H461T-dG462-A463T (protein)
chain: B10 chain with I365Q, Q385G
B16: I283T-P284D-i284aP-N287P-S322T-H384L-N388M-E421V-C430N-L432F-L434W-S436N-H461T-dG462-A463T (protein)
chain: B10 chain with I365Q, H384L
B17: I283T-P284D-i284aP-N287P-S322T-N388M-E421V-C430N-L432F-L434W-S436N-G448C-H461T-dG462-A463T (protein)
chain: B10 chain with I365Q, G448C
B18: I283T-P284D-i284aP-E286A-N287P-S322T-N388M-E421V-C430N-L432F-L434W-S436N-H461T-dG462-A463T (protein)
chain: B10 chain with E286A, I365Q
B19: I283T-P284D-i284aP-N287P-S322T-N388M-E421V-C430N-L432F-L434W-S436N-H461T-dG462-A463T-D468L (protein)
chain: B10 chain with I365Q, D468L
B20: I283T-P284D-i284aP-N287P-S322T-N388M-E421V-C430N-L432F-L434W-S436N-H461T-dG462-A463T-Y469H (protein)
chain: B10 chain with I365Q, Y469H
B21: I283T-P284D-i284aP-N287P-S322T-N388M-E421V-C430N-L432F-L434W-S436N-G448V-H461T-dG462-A463T (protein)
chain: B10 chain with I365Q, G448V
B22: I283T-P284D-i284aP-N287P-S322T-N388M-E421V-C430N-L432F-L434W-S436N-C437G-H461T-dG462-A463T (protein)
chain: B10 chain with I365Q, C437G
B23: I283T-P284D-i284aP-N287P-S322T-N388M-E421V-C430N-L432F-L434W-S436N-C437F-H461T-dG462-A463T (protein)
chain: B10 chain with I365Q, C437F
B24: I283T-P284D-i284aP-N287P-L289R-S322T-N388M-E421V-C430N-L432F-L434W-S436N-H461T-dG462-A463T (protein)
chain: B10 chain with L289R, I365Q
B25: I283T-P284D-i284aP-N287P-S322T-Q385S-N388M-E421V-C430N-L432F-L434W-S436N-H461T-dG462-A463T (protein)
chain: B10 chain with I365Q, Q385S
B26: I283T-P284D-i284aP-N287P-S322T-N388M-E421V-C430N-L432F-L434W-S436N-H461T-dG462-A463T-Y469A (protein)
chain: B10 chain with I365Q, Y469A
B27: I283T-P284D-i284aP-N287P-S322T-H384G-N388M-E421V-C430N-L432F-L434W-S436N-H461T-dG462-A463T (protein)
chain: B10 chain with I365Q, H384G
B28: I283T-P284D-i284aP-E286S-N287P-S322T-N388M-E421V-C430N-L432F-L434W-S436N-H461T-dG462-A463T (protein)
chain: B10 chain with E286S, I365Q

Tested on: 3-methylcrotonic acid
Assay type: biochemical, Yersinia frederiksenii
Set-up: key: “+” representing a low increase in activity; “++++” representing a high increase in activity

Molecule	Activity relative to WT
B1	++++
B2	++++
B3	++++
B4	++++
B5	++++
B6	++++
B7	++++
B8	++++
B9	++++
B10	++++
B11	++++
B12	++++
B13	++++
B14	++++
B15	++++
B16	++++
B17	++++
B18	++++
B19	++++
B20	++++
B21	++++
B22	++++
B23	++++
B24	++++
B25	++++
B26	++++
B27	++++
B28	++++
